# Data published in the RNAGym collection of RNA variant scans (doi:10.1101/gr.219683.116).
# B1: mRNA-splicing (parent)
# chain: AGUUGCUGCUGGGAGCUCCAGCACAGUGAAAUGGACAGAAGGGCAGAGCAA
# Variants of: B1
# Assay: exon inclusion enrichment index; higher = more inclusion; WT1 exon 5 minigene, HEK293
row,Variant,exon inclusion enrichment index
1,AGUUGCUGUGGGGAGCUCCAGCACAGUGAAAUGGACAGAAGGGCAGAGCAA [C9U U10G],0.493
2,AGUUGCUGUAGGGAGCUCCAGCACAGUGAAAUGGACAGAAGGGCAGAGCAA [C9U U10A],0.0452
3,AGUUGCUGCUGCCAGCUCCAGCACAGUGAAAUGGACAGAAGGGCAGAGCAA [G12C G13C],0.309
4,AGUUGCUGCUGCAAGCUCCAGCACAGUGAAAUGGACAGAAGGGCAGAGCAA [G12C G13A],1.1
5,AGUUGCUGCUGCUAGCUCCAGCACAGUGAAAUGGACAGAAGGGCAGAGCAA [G12C G13U],0.237
6,AGUUGCUGCUAUGAGCUCCAGCACAGUGAAAUGGACAGAAGGGCAGAGCAA [G11A G12U],0.888
7,AGUUGCUGCUAAGAGCUCCAGCACAGUGAAAUGGACAGAAGGGCAGAGCAA [G11A G12A],0.676
8,AGUUGCUGCUACGAGCUCCAGCACAGUGAAAUGGACAGAAGGGCAGAGCAA [G11A G12C],1.9
9,AGUUGUAGACGGGAGCUCCAGCACAGUGAAAUGGACAGAAGGGCAGAGCAA [C6U U7A C9A U10C],0.322
10,AGUUGCUGCUGUGAGCUCCAGCACAGUGAAAUGGACAGAAGGGCAGAGCAA [G12U],0.925
11,AGUUGCUGCUGCGAGCUCCAGCACAGUGAAAUGGACAGAAGGGCAGAGCAA [G12C],1.58
12,AGUUGCUGCUGAGAGCUCCAGCACAGUGAAAUGGACAGAAGGGCAGAGCAA [G12A],1.7
13,AGUUGCCGCCGGGAGCUCCAGCACAGUGAAAUGGACAGAAGGGCAGAGCAA [U7C U10C],2.76
14,AGUUGCUUGUGGGAGCUCCAGCACAGUGAAAUGGACAGAAGGGCAGAGCAA [G8U C9G],0.455
15,AGUUGCUUUUGGGAGCUCCAGCACAGUGAAAUGGACAGAAGGGCAGAGCAA [G8U C9U],0.3
16,AGUUGCUUAUGGGAGCUCCAGCACAGUGAAAUGGACAGAAGGGCAGAGCAA [G8U C9A],0.386
17,AGUUGUCGCCGGGAGCUCCAGCACAGUGAAAUGGACAGAAGGGCAGAGCAA [C6U U7C U10C],3.52
18,AGUUGCCACCGGGAGCUCCAGCACAGUGAAAUGGACAGAAGGGCAGAGCAA [U7C G8A U10C],2.58
19,AGUUGCCACAGGGAGCUCCAGCACAGUGAAAUGGACAGAAGGGCAGAGCAA [U7C G8A U10A],0.437
20,AGUUGUAUAUGGGAGCUCCAGCACAGUGAAAUGGACAGAAGGGCAGAGCAA [C6U U7A G8U C9A],0.17
21,AGUUGCUGCACGGAGCUCCAGCACAGUGAAAUGGACAGAAGGGCAGAGCAA [U10A G11C],2.77
22,AGUUGCUGCAAGGAGCUCCAGCACAGUGAAAUGGACAGAAGGGCAGAGCAA [U10A G11A],2.02
23,AGUUGCUGCAUGGAGCUCCAGCACAGUGAAAUGGACAGAAGGGCAGAGCAA [U10A G11U],2.73
24,AGUUGCUGAGGGGAGCUCCAGCACAGUGAAAUGGACAGAAGGGCAGAGCAA [C9A U10G],0.829
25,AGUUGCUGACGGGAGCUCCAGCACAGUGAAAUGGACAGAAGGGCAGAGCAA [C9A U10C],2.65
26,AGUUGCUGAAGGGAGCUCCAGCACAGUGAAAUGGACAGAAGGGCAGAGCAA [C9A U10A],0.914

row,Variant,exon inclusion enrichment index
1,AGUUGCUGCUCAGAGCUCCAGCACAGUGAAAUGGACAGAAGGGCAGAGCAA [G11C G12A],0.472
2,AGUUGCUGCUCUGAGCUCCAGCACAGUGAAAUGGACAGAAGGGCAGAGCAA [G11C G12U],0.467
3,AGUUGCUGCUCCGAGCUCCAGCACAGUGAAAUGGACAGAAGGGCAGAGCAA [G11C G12C],1.58
4,AGUUGCUCAUGGGAGCUCCAGCACAGUGAAAUGGACAGAAGGGCAGAGCAA [G8C C9A],0.365
5,AGUUGCUCUUGGGAGCUCCAGCACAGUGAAAUGGACAGAAGGGCAGAGCAA [G8C C9U],0.216
6,AGUUGCUCGUGGGAGCUCCAGCACAGUGAAAUGGACAGAAGGGCAGAGCAA [G8C C9G],0.884
7,AGUUGCGCCUGGGAGCUCCAGCACAGUGAAAUGGACAGAAGGGCAGAGCAA [U7G G8C],2.05
8,AGUUGCGUCUGGGAGCUCCAGCACAGUGAAAUGGACAGAAGGGCAGAGCAA [U7G G8U],1.91
9,AGUUGCGACUGGGAGCUCCAGCACAGUGAAAUGGACAGAAGGGCAGAGCAA [U7G G8A],2.02
10,AGUUGCUGCUGGCCGCUCCAGCACAGUGAAAUGGACAGAAGGGCAGAGCAA [G13C A14C],0.19
11,AGUUGCUGCUUUGAGCUCCAGCACAGUGAAAUGGACAGAAGGGCAGAGCAA [G11U G12U],0.755
12,AGUUGCUGCUUCGAGCUCCAGCACAGUGAAAUGGACAGAAGGGCAGAGCAA [G11U G12C],1.86
13,AGUUGCUGCUUAGAGCUCCAGCACAGUGAAAUGGACAGAAGGGCAGAGCAA [G11U G12A],0.315
14,AGUUGCGGAUGGGAGCUCCAGCACAGUGAAAUGGACAGAAGGGCAGAGCAA [U7G C9A],1.94
15,AGUUGCAUAUGGGAGCUCCAGCACAGUGAAAUGGACAGAAGGGCAGAGCAA [U7A G8U C9A],0.565
16,AGUUGCUGCCGGGAGCUCCAGCACAGUGAAAUGGACAGAAGGGCAGAGCAA [U10C],2.72
17,AGUUGCUGCGGGGAGCUCCAGCACAGUGAAAUGGACAGAAGGGCAGAGCAA [U10G],1.82
18,AGUUGCUGCAGGGAGCUCCAGCACAGUGAAAUGGACAGAAGGGCAGAGCAA [U10A],0.633
19,AGUUGUGGAUGGGAGCUCCAGCACAGUGAAAUGGACAGAAGGGCAGAGCAA [C6U U7G C9A],0.522
20,AGUUGCUGCUGGACGCUCCAGCACAGUGAAAUGGACAGAAGGGCAGAGCAA [G13A A14C],0.227
21,AGUUGCUGCUGGAGGCUCCAGCACAGUGAAAUGGACAGAAGGGCAGAGCAA [G13A A14G],0.249
22,AGUUGCUGCUGGAUGCUCCAGCACAGUGAAAUGGACAGAAGGGCAGAGCAA [G13A A14U],0.0995
23,AGUUGCUGCGCGGAGCUCCAGCACAGUGAAAUGGACAGAAGGGCAGAGCAA [U10G G11C],2.98
24,AGUUGCUGCGUGGAGCUCCAGCACAGUGAAAUGGACAGAAGGGCAGAGCAA [U10G G11U],2.4
25,AGUUGCUGCGAGGAGCUCCAGCACAGUGAAAUGGACAGAAGGGCAGAGCAA [U10G G11A],2.34
